Results as given in patent US20150010525A1, “Catalytic Tagging System to Study Macro-Molecular Interactions Using Engineered Ubiquitin Ligase and Ubiquitin-Like Proteins to Facilitate Substrate Identification” (THE REGENTS OF THE UNIVERSITY OF CALIFORNIA, priority 2012, published 2015).

How the values were obtained:
cIAP1 = molecular target: T1, cIAP1 (Homo sapiens, UniProt P61081+Q13490); assay: SILAC mass spectrometry screen for cIAP1 substrates with NEDDylator^cIAP1 in apoptotic Jurkat cell lysate; assay type: biochemical; settings: Light lysate with NEDDylator^cIAP1, Heavy lysate with Ubc12
T1 construct: cIAP1(ΔR) (residues 1-555); GST (N, cleaved yes); made in house; host or cells: E. coli BL21 (DE3)
Description: Jurkat cells were grown in media containing either light or heavy isotopes of lysine and arginine and induced to undergo apoptosis with STS. Light cell extracts were incubated with the respective catalytic tagging system for each of the two IAPs and the heavy extracts labeled only with the wild-type NEDD8 E2, Ubc12. […] 100 mg ^13C6^15N2 L-Lys.2HCl and 86 mg ^13C6 L-Arg.HCl (Cambridge Isotope) were added to the same amount of medium to generate the “Heavy” medium. Jurkat cells were cultured separately in “Light” or “Heavy” medium for 7 days to allow for thorough isotope incorporation. For IAP substrate identification, 400 million cells were treated with 2 μM STS for 4 hours, harvested, lysed in M-PER mammalian protein extraction buffer (Thermo/Pierce) in the presence of protease inhibitors (100× ProteoBlock cocktail, Fermentas) and mixed with cell lysate prepared from 400 million untreated cells. […] Purified NEDDylated proteins were trypsinized and analyzed with tandem mass spectrometry (LC-MS/MS).
For SILAC experiments, Jurkat cells were cultured separately in “Light” (supplemented with regular Lys and Arg) or “Heavy” (supplemented with ^13C6^15N2 Lys and ^13C6 Arg) medium for 7 days to allow for thorough isotope incorporation. Apoptotic “Light” and “Heavy” cell extracts were prepared individually. The lysates were cleared by spinning and then diluted in 50 mM HEPES pH 7.4, 150 mM NaCl to 5 mg/ml and supplemented with 5 mM ATP, 10 mM MgCl2. Endogenous NEDD8 E1 is cell lysate was used to catalyze the reaction. HB-NEDD8 was added to both lysate at mass ratio 1:500; the catalytic tagging system was added to the “Light” lysate at mass ratio 1:1000. Equal molar of Ubc12 was added to the “Heavy” lysate. […] NEDDylated proteins were separated by one-dimensional SDS-PAGE, and trypsinized for LC-MS/MS analysis.
For liquid chromatography—Tandem mass spectrometry (LC-MS/MS) analysis, the tryptic peptides were first desalted and concentrated with a C18 Ziptip (Millipore). LC-MS/MS was carried out by reverse phase LC interfaced with a LTQ-Orbitrap (ThermoFisher Scientific) hybrid mass spectrometer. A nanoflow HPLC (NanoAcquity UPLC system, Waters Corporation) was equipped with a trap column (180 μm×20 mm, 5 μm SymmetryC18, from Waters) and an analytical column (100 μm×100 mm, 1.7 μm BEH130C18, from Waters). Peptides were eluted over a linear gradient from 2% solvent A (0.1% formic acid in water) to 35% solvent B (0.1% formic acid in acetonitrile) at 350 nL/min over 35 min. MS and MS/MS spectra were acquired in a data-dependent mode with MS spectra acquired in the Orbitrap at 30,000 resolving power and 6 CID MS/MS spectra acquired per MS in the LTQ linear ion trap. Dynamic exclusion was set at 90 seconds to prevent repeated MS/MS on the same precursor ion.
The identified peptides were searched against a random decoy protein database for evaluating the false positive rates. […] The decoy peptides were removed from the data. Protein IDs were assigned only when at least two unique peptides were identified from the same protein. For SILAC experiment, Light/Heavy ratios for the identified peptides were calculated, using ProteinProspector. The media Light/Heavy ratios of all the peptides identified for each protein were used to represent the Light/Heavy ratio of the protein.

XIAP = XIAP (Homo sapiens, UniProt P98170); assay: In vitro PGAM5 ubiquitination assay with XIAP; assay type: biochemical; settings: 50 nM UBE1, 200 nM UbcH5b, 700 nM XIAP, 1.5 μM PGAM5-His6
Text: FIG. 12 illustrates the identification of the proteolytic form of PGAM5 as an XIAP and cIAP1 substrate in vitro. […] Overall, 15 unique peptides from PGAM5 were recovered and account for 43% of the entire protein sequence. (B) An example of LC-MS/MS spectrum from endogenous PGAM5 N-terminal peptide after subtiligase labeling and positive enrichment. A non-natural amino acid, 2-aminobutyric acid (Abu), is a designed tag showing characteristic labeling by subtiligase. (C) PGAM5 is cleaved into a truncated form in cells. Jurkat cells were transiently transfected with C-terminal Myc tagged full length PGAM5 or PGAM5 (Δ2-24). […] (D) N-terminal amino acid sequence alignment of PGAM5(Δ24) and other known evolutionarily conserved IBM sequences. Reaper, Hid, and Grim are Drosophila proteins that bind DIAP1, the Drosophila IAP. Amino acids are colored according to their chemical properties. (E) XIAP binds PGAM5(Δ24) but not the full length PGAM5. Recombinant GST fused XIAP, PGAM5(FL), and PGAM5(Δ24) were used for in vitro GST pull down experiments. (F) PGAM5(Δ24) binds to XIAP and cIAP1 independent of the RING domain. […] The resins were washed and proteins were eluted and analyzed with SDSPAGE and coomassie blue staining. […] The ubiquitination assay was performed in vitro and PGAM5 is detected with an anti-His antibody. […]

Sequence of XIAP (P98170 whole entry, the tested form may be a part): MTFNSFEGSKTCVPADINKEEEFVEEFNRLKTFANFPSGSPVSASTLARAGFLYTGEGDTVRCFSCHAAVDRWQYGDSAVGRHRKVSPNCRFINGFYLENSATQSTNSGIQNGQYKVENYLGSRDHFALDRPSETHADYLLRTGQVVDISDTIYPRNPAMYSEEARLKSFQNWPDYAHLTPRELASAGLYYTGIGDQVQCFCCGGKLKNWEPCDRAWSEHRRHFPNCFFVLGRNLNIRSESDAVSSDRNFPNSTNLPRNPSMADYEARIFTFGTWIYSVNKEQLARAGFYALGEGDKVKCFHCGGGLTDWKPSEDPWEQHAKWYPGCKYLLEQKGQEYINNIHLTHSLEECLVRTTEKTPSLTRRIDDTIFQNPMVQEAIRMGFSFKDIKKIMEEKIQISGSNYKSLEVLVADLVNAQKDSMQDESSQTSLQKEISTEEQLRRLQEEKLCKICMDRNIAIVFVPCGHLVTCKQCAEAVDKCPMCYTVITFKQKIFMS
T1 sequence (Q13490+P61081 fused): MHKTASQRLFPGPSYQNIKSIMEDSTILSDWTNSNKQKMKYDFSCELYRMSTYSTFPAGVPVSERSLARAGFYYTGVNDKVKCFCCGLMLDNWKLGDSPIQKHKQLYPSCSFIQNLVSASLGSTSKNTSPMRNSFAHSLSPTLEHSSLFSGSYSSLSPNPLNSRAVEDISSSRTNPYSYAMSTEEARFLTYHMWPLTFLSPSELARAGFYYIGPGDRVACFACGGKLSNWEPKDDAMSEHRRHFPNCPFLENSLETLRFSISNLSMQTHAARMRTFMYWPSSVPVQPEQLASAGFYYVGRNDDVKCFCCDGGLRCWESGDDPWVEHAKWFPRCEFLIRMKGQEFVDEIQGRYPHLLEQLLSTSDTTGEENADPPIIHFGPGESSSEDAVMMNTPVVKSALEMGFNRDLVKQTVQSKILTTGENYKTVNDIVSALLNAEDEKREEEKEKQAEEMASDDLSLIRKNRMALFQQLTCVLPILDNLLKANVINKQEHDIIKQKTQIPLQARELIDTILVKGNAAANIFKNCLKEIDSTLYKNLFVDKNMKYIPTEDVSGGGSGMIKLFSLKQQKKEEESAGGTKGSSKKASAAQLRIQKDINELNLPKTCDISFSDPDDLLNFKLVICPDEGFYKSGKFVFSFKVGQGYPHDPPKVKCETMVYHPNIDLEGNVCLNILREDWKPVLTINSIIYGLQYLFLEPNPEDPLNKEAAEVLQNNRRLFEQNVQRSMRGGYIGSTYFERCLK

B1: Serine/threonine-protein phosphatase PGAM5, mitochondrial: phosphoglycerate mutase family member 5, dimeric protein phosphatase (protein, UniProt Q96HS1 1-289, looked up)
chain: MAFRQALQLAACGLAGGSAAVLFSAVAVGKPRAGGDAEPRPAEPPAWAGGARPGPGVWDPNWDRREPLSLINVRKRNVESGEEELASKLDHYKAKATRHIFLIRHSQYHVDGSLEKDRTLTPLGREQAELTGLRLASLGLKFNKIVHSSMTRAIETTDIISRHLPGVCKVSTDLLREGAPIEPDPPVSHWKPEAVQYYEDGARIEAAFRNYIHRADARQEEDSYEIFICHANVIRYIVCRALQFPPEGWLRLSLNNGSITHLVIRPNGRVALRTLGDTGFMPPDKITRS
modifications: full-length
notes: phosphoglycerate mutase family member 5, dimeric protein phosphatase
- L/H (Light/Heavy ratio) (cIAP1): 23.7
- ubiquitination by XIAP (XIAP): not the full length protein
